Assay results published in publication PMC8432889.

Molecular target: β-PIX (endogenous, Hap1 cells) (human (endogenous in Hap1)) (UniProt Q14155)
Chain of UniProt Q14155 (Q14155 whole entry): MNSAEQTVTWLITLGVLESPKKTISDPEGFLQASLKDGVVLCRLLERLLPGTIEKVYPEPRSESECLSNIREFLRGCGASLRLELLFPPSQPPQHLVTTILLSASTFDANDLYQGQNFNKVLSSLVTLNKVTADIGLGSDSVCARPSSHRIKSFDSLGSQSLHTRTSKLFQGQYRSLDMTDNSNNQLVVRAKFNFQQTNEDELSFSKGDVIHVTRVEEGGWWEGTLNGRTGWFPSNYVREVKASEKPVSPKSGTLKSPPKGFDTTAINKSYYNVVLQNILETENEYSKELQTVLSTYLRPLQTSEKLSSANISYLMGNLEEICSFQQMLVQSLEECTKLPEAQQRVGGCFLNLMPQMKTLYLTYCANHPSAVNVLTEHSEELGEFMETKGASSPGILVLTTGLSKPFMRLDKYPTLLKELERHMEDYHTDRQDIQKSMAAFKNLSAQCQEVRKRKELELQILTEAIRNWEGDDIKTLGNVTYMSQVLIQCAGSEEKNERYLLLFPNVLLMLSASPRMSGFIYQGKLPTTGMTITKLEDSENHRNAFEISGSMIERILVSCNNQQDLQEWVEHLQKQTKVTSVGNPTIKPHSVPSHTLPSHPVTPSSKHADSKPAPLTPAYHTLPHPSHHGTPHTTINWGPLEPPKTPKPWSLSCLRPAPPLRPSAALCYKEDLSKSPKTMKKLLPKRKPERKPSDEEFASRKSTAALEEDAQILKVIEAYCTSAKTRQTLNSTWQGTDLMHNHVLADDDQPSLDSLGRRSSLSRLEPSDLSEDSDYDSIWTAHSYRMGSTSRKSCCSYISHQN

Substance: Emerald-tagged PAK1, full length (from UniProt Q13153 1-545) (enzyme)
- Salmonella invasion into WT Hap1 cells treated with the inhibitor peptide PAK18 (PAK residues 187–203; 5 μM), percent impeded; negative control peptide had no effect: 55%
